Assay [1] concerns the target BRD4 bromodomain 1 (residues 43–180) (human, UniProt O60885 43-180). The assay is described as follows: NMR titration.
Assay [2] deals with T1, BRD4 ET domain (600–700) (human, UniProt O60885 600-700). The assay is described as follows: NMR titration.
Assay [3] has as its target T1, BRD4 ET domain (600–700). Kind of assay: MST.

Ends that are not written are not given here.

Regarding SLVK(Ac)PS [monoacetylated SARS-CoV-2 E^K53ac peptide (aa 50–55 of SARS-CoV-2 E)], in assay [1], the Kd is above 1000 µM.
Take KPSFYVYSRVKNLNSSRVPD [SARS-CoV-2 E^53−72 peptide (aa 53–72 of SARS-CoV-2 E)]: in assay [2], the binding result is “binds”.
On to {FAM}-SFYVYSRVKNLN [FAM-SARS-CoV-2 E^55–66 peptide], for which the affinity in assay [3], expressed as Kd, was 50 µM.
Consider SRVK(Ac)NLNSS [monoacetylated SARS-CoV-2 E^K63ac peptide (aa 60–68 of SARS-CoV-2 E)], for which, in assay [1], binding was put at a Kd of 660 µM.

(Values after paper PMC9212912 (Structure (London, England : 1993), 2022).)
